Results on nine molecules are retold here after patent US10357573B2, “Block copolymer conjugate of physiologically active substance” (Nippon Kayaku Kabushiki Kaisha, priority 2015, dated 2019).

Read-outs that look alike come from different tables or passages of the source.

A short description of data set [1]: Light scattering intensity of 1 mg/mL aqueous solution, relative to toluene. Format: physicochemical. To be noted: for relative ratio between the light scattering intensity and the light scattering intensity of toluene: 1 mg/mL aqueous solution vs standard toluene solution under the same conditions; for light scattering intensity of a 1 mg/mL aqueous solution: 1 mg/mL in ultrapure water, 25° C., wavelength 632.8 nm. Here is the method:
Regarding the measurement sample for the scattering intensity measurement, a solution obtained by adding ultrapure water to a physiologically active substance-conjugated block copolymer to obtain a concentration of 1 mg/mL, dissolving the block copolymer by irradiating the mixture with ultrasonic waves for 10 minutes under ice cooling, and then filtering the solution through a 0.2-μm membrane filter, was used.
Toluene (manufactured by Junsei Chemical Co., Ltd., special grade) that was used for the measurement of the light scattering intensity, was used after being filtered three times through a 0.2-μm membrane filter.

Data set [2] is described as follows: Volume average particle diameter by dynamic light scattering. The settings on record: device A, 1 mg/mL. The data set is classed as physicochemical. The method, then: Measurement of the volume average particle diameters of the physiologically active substance-conjugated block copolymers of Examples and Comparative Examples was carried out using a ZetaPotential/Particlesizer NICOMP 380 ZLS (device A; temperature: 25° C.) manufactured by Particle Sizing Systems, LLC, or a particle size zeta potential analyzer, ZETASIZER NANO ZS (device B; measurement temperature: 25° C., analysis model: General Purpose (normal resolution), material RI: 1.59) manufactured by Malvern Instruments, Ltd. Regarding the volume average particle diameter measurement sample, a solution obtained by adding ultrapure water to a physiologically active substance-conjugated block copolymer to obtain a concentration of 1 mg/mL or 5 mg/mL, dissolving the block copolymer by irradiating the mixture with ultrasonic waves for 10 minutes under ice cooling, and then filtering the solution through a 0.2-μm membrane filter, was used.

Data set [3] can be described thus: Test Example A-4 hematotoxicity test in non-tumor bearing rat. Format: in vivo, Sprague-Dawley rats. The settings on record: 40 mg/kg as converted to 7-ethyl-10-hydroxycamptothecin; for prolonged hematotoxicity: 7 days after administration; for Number of blood reticulocytes: iv once, 7th day after administration. An excerpt: The resultant solutions were used as analysis samples.

Data set [4] concerns human stomach cancer SC-4-JCK. Briefly: Test Example A-5 antitumor effect in human stomach cancer-transplanted nude mouse. The settings on record: 12 mg/kg as converted to 7-ethyl-10-hydroxycamptothecin, iv once; for Relative tumor volume: 14th day after administration, day of administration = 1.0, average ± SD. Format: in vivo.
Procedure: A tumor mass of human stomach cancer SC-4-JCK that had been subcutaneously subcultured in a nude mouse was cut into a block having a size of about 3 mm on each side, and this block was subcutaneously transplanted on the dorsal side of a nude mouse using a trocar.
A relative tumor volume was determined from the tumor volumes obtained on the day of administration and on the 14th day after the administration, and this was employed as an index for the antitumor effect. The tumor volume was determined by measuring the major axis (L: mm) and the minor axis (W: mm) of the tumor, and calculating the volume by the calculation formula: (L×W^2)/2.
A short description of data set [5]: Test Example A-3 hepatotoxicity test in non-tumor bearing mouse. Also on record: ALT: unit not given here. The settings on record: for ALT: iv once, blood plasma 3 days after administration; for hepatotoxicity: maximum tolerated dose iv once, 3 days after administration. The data set is classed as in vivo, Crl:CD1(ICR)(ICR(IGS)) mice. Here is the method:
The blood plasma obtained by centrifuging the blood thus collected (4° C., 1600×g, 10 minutes) was used as a measurement sample, and a blood chemical examination of the measurement sample was performed using an automatic biochemical analysis apparatus Model 7180 (Hitachi High Technologies Corp.).

How the values of data set [6] were obtained: As a control group, a 5% glucose injection solution was intravenously administered once through the caudal vein.
Polysorbate 80 was added thereto in an amount equal to the amount of anhydrous ethanol, and the mixture was sufficiently mixed. This was used as a preparation stock solution.
After 3, 5, 7, 11, and 14 days from the day of administration of the various compounds, blood was collected through the subclavian vein without anesthesia using a 1-mL disposable syringe with a 26 G needle. About 3 μL of an EDTA-2K solution had been added in advance to the syringe, and this solution was sufficiently mixed with the blood thus collected. The resultant solutions were used as analysis samples. The blood samples were subjected to a blood cell analysis using a blood cell analysis apparatus XT-2000iV (Sysmex Corp.).

For data set [7], the system named is human pancreatic cancer BxPC3. Briefly: Test Example C-3 antitumor effect test in human pancreatic cancer-transplanted nude mouse. The data set is classed as in vivo. The settings on record: for Relative tumor volume: iv once, 8th day after administration, day of administration = 1.0, average ± SD; for antitumor effect: compared to cabazitaxel 30 mg/kg. Here is the method: A tumor mass of human pancreatic cancer BxPC3 that had been subcutaneously subcultured in a nude mouse was cut into a block having a size of about 3 mm on each side, and this block was subcutaneously transplanted on the dorsal side of a nude mouse using a trocar.
A relative tumor volume was determined from the tumor volumes obtained on the day of administration and on the 8th day after the administration, and this was employed as an index for the antitumor effect. The tumor volume was determined by measuring the major axis (L: mm) and the minor axis (W: mm) of the tumor, and calculating the volume by the calculation formula: (L×W^2)/2.

Another data set has as its system human lung cancer H460. Kind of data set: Test Example C-4 antitumor effect test in human lung cancer-transplanted nude mouse. To be noted: for Relative tumor volume: iv once, 15th day after administration, day of administration = 1.0, average ± SD; for antitumor effect: compared to cabazitaxel 30 mg/kg. Format: in vivo. Here is the method:
A tumor mass of human lung cancer H460 that had been subcutaneously subcultured in a nude mouse was cut into a block having a size of about 3 mm on each side, and this block was subcutaneously transplanted on the dorsal side of a nude mouse using a trocar.
A relative tumor volume was determined from the tumor volumes obtained on the day of administration and on the 15th day after the administration, and this was employed as an index for the antitumor effect. The tumor volume was determined by measuring the major axis (L: mm) and the minor axis (W: mm) of the tumor, and calculating the volume by the calculation formula: (L×W^2)/2.

Data set [8] is described as follows: Maximum tolerated dose / maximum non-lethal dose, single intravenous administration. Format: in vivo, mice. The settings on record: iv once through the caudal vein; for maximum tolerated dose: as converted to cabazitaxel.
Where [9] appears, read: dose 100 mg/kg as converted to 7-ethyl-10-hydroxycamptothecin (maximum tolerated dose).
Where [10] appears, read: 60 mg/kg as converted to cabazitaxel.

On to “7-ethyl-10-Hydroxycamptothecin (EHC) Conjugate of polyethylene glycol (5 Kilodaltons)-polyglutamic Acid (10.0 Polymer) Block Copolymer [Example A-3]”, for which, in data set [1], the “relative ratio between the light scattering intensity and the light scattering intensity of toluene” value was determined as 3.0 times; the “light scattering intensity of a 1 mg/mL aqueous solution” value was 16,750 cps. Further, the “volume average particle diameter” value in [2] was found to be 8 nm. In data set [3], the “prolonged hematotoxicity” value is on record as “prolonged hematotoxicity was not recognized” and the “Number of blood reticulocytes” value is 54.29 ± 8.49 ×10^4/μL. Also, in data set [4], the “antitumor effect” value is “stronger antitumor effect compared to the Comparative Examples” and the Relative tumor volume came to 1.574 ± 0.388.

As to “7-ethyl-10-hydroxycamptothecin (EHC) Conjugate of polyethylene glycol (2 Kilodaltons)-polyglutamic Acid (7.6 Polymer) Block Copolymer [Example A-1]”, in data set [1], the “relative ratio between the light scattering intensity and the light scattering intensity of toluene” value is listed as 3.1 times; the “light scattering intensity of a 1 mg/mL aqueous solution” value is reported as 17,070 cps. Further, the “volume average particle diameter” value in data set [2] was found to be 6 nm. This molecule also had an ALT in [5] (setting [9]) of 64 ± 25. In addition, the “hepatotoxicity” value in data set [5] is given as “hepatotoxicity was negligible”. Also, in data set [3], the “prolonged hematotoxicity” value is given as “prolonged hematotoxicity was not recognized” and the “Number of blood reticulocytes” value is recorded as 64.18 ± 4.43 ×10^4/μL. For the same molecule, the Relative tumor volume in [4] is reported as 2.466 ± 0.398.

As for “7-ethyl-10-hydroxycamptothecin (EHC) Conjugate of polyethylene glycol (2 Kilodaltons)-polyglutamic Acid (10.0 Polymer) Block Copolymer [Example A-2]”, in [1], the “relative ratio between the light scattering intensity and the light scattering intensity of toluene” value is given as 4.9 times; the “light scattering intensity of a 1 mg/mL aqueous solution” value is 27,149 cps. In addition, the “volume average particle diameter” value in [2] is 10 nm. In [5] (setting [9]), this molecule yielded an ALT of 55 ± 54. Moreover, the “hepatotoxicity” value in data set [5] was “hepatotoxicity was negligible”. The molecule further yielded a Relative tumor volume in [4] of 2.593 ± 0.482.

Take “7-ethyl-10-hydroxycamptothecin (EHC) Conjugate of polyethylene glycol (3 Kilodaltons)-polyglutamic Acid (6.6 Polymer) Block Copolymer [Comparative Example A-2, reference compound]”: in data set [1], the “relative ratio between the light scattering intensity and the light scattering intensity of toluene” value was found to be 1.80 times; the “light scattering intensity of a 1 mg/mL aqueous solution” value is given as 9,964 cps; the “self-association in aqueous solution” value is on record as “non-associating”. Also, the ALT in [5] (setting [9]) came to 528 ± 681. In addition, the “hepatotoxicity” value in [5] was “occurrence of hepatotoxicity was acknowledged”. The “Number of blood reticulocytes” value in data set [3] is 66.17 ± 7.74 ×10^4/μL. Further, the Relative tumor volume in [4] is 2.426 ± 1.122.

With “7-ethyl-10-hydroxycamptothecin (EHC) Conjugate of polyethylene glycol (12 Kilodaltons)-polyglutamic Acid (7.5 Polymer) Block Copolymer [Comparative Example A-3]”, in data set [1], the “relative ratio between the light scattering intensity and the light scattering intensity of toluene” value was 1.0 times; the “light scattering intensity of a 1 mg/mL aqueous solution” value is 5,625 cps; the “self-association in aqueous solution” value is recorded as “non-associating”. Besides, in data set [5] (dose 50 mg/kg as converted to 7-ethyl-10-hydroxycamptothecin (maximum tolerated dose)), the ALT is on record as 114 ± 68. Moreover, the “hepatotoxicity” value in data set [5] is given as “hepatotoxicity was clearly manifested”.

With “7-ethyl-10-hydroxycamptothecin (EHC) Conjugate of polyethylene glycol (12 Kilodaltons)-polyglutamic Acid (25 Polymer) Block Copolymer [Comparative Example A-1, reference compound]”, in data set [1], the “relative ratio between the light scattering intensity and the light scattering intensity of toluene” value came out at 7.5 times; the “light scattering intensity of a 1 mg/mL aqueous solution” value is 41,321 cps. Further, the “volume average particle diameter” value in data set [2] was found to be 20 nm. In addition, in data set [3], the “prolonged hematotoxicity” value was “prolonged hematotoxicity was recognized” and the “Number of blood reticulocytes” value was 20.26 ± 11.50 ×10^4/μL. The molecule further showed a Relative tumor volume in [4] of 2.232 ± 0.534.

On to `CO[C@H]1C(=O)[C@]2(C)[C@@H](OC)C[C@H]3OC[C@@]3(OC(C)=O)[C@H]2[C@H](OC(=O)c2ccccc2)[C@]2(O)C[C@H](OC(=O)[C@H](O)[C@@H](NC(=O)OC(C)(C)C)c3ccccc3)C(C)=C1C2(C)C` [Cabazitaxel, reference compound], for which, in data set [6] (mouse, in vivo), the “prolonged hematotoxicity” value is recorded as “prolonged hematotoxicity was not recognized”. Besides, the figures for the Relative tumor volume (in [7] (30 mg/kg); with human lung cancer H460 (30 mg/kg)) were 1.19 ± 0.21 and 1.476 ± 0.509, respectively. The maximum non-lethal dose in [8] came to 30 mg/kg.

As for “Cabazitaxel (CBZ) Conjugate of polyethylene glycol (5 Kilodaltons)-α-polyaspartic Acid (20.0 Polymer) Block Copolymer [Example C-2]”, in [7] (setting [10]), the “antitumor effect” value is listed as “stronger tumor proliferation suppressing action” and the Relative tumor volume is on record as 0.81 ± 0.17. In the data set with human lung cancer H460 (setting [10]), the “antitumor effect” value is recorded as “stronger tumor proliferation suppressing action” and the Relative tumor volume is on record as 0.800 ± 0.371. For the same molecule, the maximum tolerated dose in [8] is recorded as 60 mg/kg.

In the case of “Cabazitaxel (CBZ) Conjugate of polyethylene glycol (12 Kilodaltons)-α,β-polyaspartic Acid (23.8 Polymer) Block Copolymer [Comparative Example C-1, reference compound]”, in data set [6] (60 mg/kg as converted to cabazitaxel, iv once, 5th day after administration), the “Number of blood reticulocytes” value is listed as 18.49 ± 13.10 ×10^4/μL. The “prolonged hematotoxicity” value in data set [6] (5 days after administration) is reported as “prolonged hematotoxicity was recognized”. Moreover, in data set [7] (setting [10]), the “antitumor effect” value is recorded as “stronger tumor proliferation suppressing action” and the Relative tumor volume is 0.78 ± 0.09. For the same molecule, in the data set with human lung cancer H460 (setting [10]), the “antitumor effect” value is on record as “stronger tumor proliferation suppressing action” and the Relative tumor volume is listed as 0.484 ± 0.083. Besides, the maximum tolerated dose in data set [8] is reported as 60 mg/kg.
